Article doi:10.1101/2020.04.28.065904

Molecular target: aa defensin C (mature Aedes albopictus defensin C peptide) (Aedes albopictus)
Experiment: ELISA

| Substance | absorbance |
| --- | --- |
| JEV E protein (recombinant) (natural protein) | 0.95 |
| JEV ED III protein (ED III domain of the E protein, recombinant) (domain or fragment) | 1.17 |
